Assay results published in publication PMC6612559, “Functional characterization of a novel arachidonic acid 12S‐lipoxygenase in the halotolerant bacterium Myxococcus fulvus exhibiting complex social living patterns” (MicrobiologyOpen, 2018).

Substrate: CC/C=C\C/C=C\C/C=C\C/C=C\C/C=C\CCCC(=O)O
Experiment: purified protein
Format: biochemical, Myxococcus fulvus
Conditions: PBS, no detergent; O2 co-substrate; fit over all substrate concentrations up to 200 µM

B1: MF-LOX1 (Myxococcus fulvus LOX1) (Myxococcus fulvus) (protein)
chain: MTVEYKLRIRTSTKLGAGTDANISVVLVGTRGESGPHVLDKPFHNDFEAGAEDVYSVQASDDVGALLLLRFGNTGGIAADWLLDHAWVTAGERQWSFPFFRWVRAGATVDVLEGTAKLARHAGCEREATARRELLEARRRMYPWRPAEATEGLPGALDLSEAQPLPKDELYRGLTEGSYEVVIARTLAAIKLHLPLLSKAWNGLVDIFDFFKGLEVPRLAPRWQDDLEFARQAVQGINPLHITLIPQLPQGMPLTDEDVKGVLSPGTTLARALDSKRIFLLDFDILEDIPMYRKVDEDGVEERRWAPAARCLLYLDDLRQLRPLAIQLGRDGGKDPVFTPNDDTYDWLAAKIYLRCSEGNTHQMVAHALRTHFVAEPFVMATMRNLPDPHPVYKLLRRHFRYTLAINEGARKGLLAAGGVFDDFIATGGPDKGHLQLGKKGYQRWKLTDNRPREDLEHRGVLDPAVLPYYPYRDDALPLWDALEEYVGGVLRYFYPTDADLEGDTEMQHWWKDLTEHGLPVDKLPCRELSRVDDLVDILTTVVFTVSVQHAAVNYLQYEHYAFVPNAPLCMRREPPRQKGTLCAEDLPEMIPSRSQTLWQVAIGRALSSFGDDEEYLLNEGGWREEYFQEPQVRALRERFEQRLRAQRDVVAARNAGAQVPYTVLSPDRIPCGITV
notes: full length, native protein 676 residues; N-terminal hexa-His tag kept, 32 extra N-terminal residues (pET28b); E. coli, Ni-agarose
  Km: 70 µM
  kcat: (3.1 ± 1.2) x 10^−2 s^-1
